± gives the standard deviation of the averaged measurements.

B1: library; numbered along this chain (parent)
chain: MNIQIGELAKRTACPVVTIRFYEQEGLLPPPGRSRGNFRLYGEEHVERLQFIRHCRSLDMPLSDVRTLLSYRKRPDQDCGEVNMLLDEHIRQVESRIGALLELKHHLVELREACSGARPAQSCGILQGLSDCVCDTRGTTAHPSD

Variants of B1 are the subject of data set [1]. The data set is described as follows: sfGFP reporter fluorescence (15 h) (µM FITC); higher = higher leak. The settings on record: library round: Round 1; ligand: none. Here is the method:
(§1)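 Cell-free biosensing: 1 µL Echo-assembled CFE reactions with linear PbrR variant templates (5 nM) and pPbrR-sfGFP reporter, with 1 µM Pb, 30 µM Zn or no ligand; endpoint sfGFP fluorescence after 15 h at 30 °C calibrated as µM FITC. Round 1 ML-predicted PbrR mutants; 3 biological replicates.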

Variants of B1 are the subject of data set [2]. The data set is described as follows: sfGFP reporter fluorescence (15 h) (µM FITC); higher = stronger transcriptional activation. The following applies: library round: Round 1. As for the experimental part: as §1

In the case of MNGQIGELAKRTACPVVTIRFYEQEGLLPPPGRSRGNFRLYGEEHVERLQFIRHCRSLDMPLSDVRTLLSYRKRPDQDCGEVNMLLDEHIRQVESRIGALLELVHHLVELREACSGARPAQSCGILQGLSDCVCDTRGTTAHPSD [I3G K104V], the results for the sfGFP reporter fluorescence in data set [1], in data set [2] (ligand: 1 µM Pb) and in data set [2] (ligand: 30 µM Zn) were 0.0618 ± 0.0017, 0.06841 ± 0.00056 and 0.0899 ± 0.0043, respectively.
As for MNIQIGELAKRTACPVVTIRFYEQEGLLPPPGRSRGNFRLYGEEHVERLQFIRHCRSLDMPLSDVRTLLSYRKRPDQDCGEVNMLLDEHIRQVESRIGALLELKHHLVELREACSGARPAQSCGILQSLSDCVCATRGTTAHPSD [G128S D135A], the sfGFP reporter fluorescence turned out to be 0.0652 ± 0.0016 in data set [1], 0.0925 ± 0.0068 in data set [2] (ligand: 1 µM Pb) and 0.604 ± 0.015 in data set [2] (ligand: 30 µM Zn).
For MNIQIGELAKRTACPVVTIRFYEQEGLLPPPGRSRGNFRLYGEEHVERLQFIRHCRSLDMPLSTVRTLLSYRKRPDQDCGEVNMLLDEHIRQVESRIGALLELKHHCVELREACSGARPAQSCGILQGLSDCVCDTRGTTAHPSD [D64T L107C] the same measures were 2.07 ± 0.33, 2.22 ± 0.12 and 2.63 ± 0.3.
Turning to MNIQIGELAKRTACPVVTIRFYEQEGLLPPPGRSRGNFRLYGEEHVERLQFIRHCRSLDMPLSTVRTLLSYRKRPDQDCGEVNMLLDAHIRQVESRIGALLELKHHLVELREACSGARPAQSCGILQGLSDCVEDTRGTTAHPSD [D64T E88A C134E], the results for the sfGFP reporter fluorescence in data set [1], in data set [2] (ligand: 1 µM Pb) and in data set [2] (ligand: 30 µM Zn) were 0.204 ± 0.031, 0.238 ± 0.062 and 1.65 ± 0.15, respectively.
As for MNIQIGELAKRTACPVVTIRFYEQEGLLPPPGRSRGNFRLYGEEHVERLQFIRHCRSLDMPLSDVRTLLSYRKRPDQDCGEVNMLLDEHIRQVESRIGALLELKHHLVELREACSGARPAQSCGILQGISCCVCDTRGTTAHPSD [L129I D131C], the sfGFP reporter fluorescence turned out to be 0.0646 ± 0.0017 in data set [1], 0.0641 ± 0.0044 in data set [2] (ligand: 1 µM Pb) and 0.07 ± 0.0017 in data set [2] (ligand: 30 µM Zn).
The corresponding values for MNIQIGELAKRTACPVVTIRFYEQEGLLPPPGRSRGNFRLYGEEHVERLQFIRHCRSLDMNLSDVRTLLSYRKRPDQDCGEVNMLLDEHIRQVVSRIGALLELKHHLVELREACSGARPAQSCGILQGLSDCVCDTRGTTAHPSD [P61N E94V] are 0.07452 ± 0.00056, 0.145 ± 0.009 and 0.747 ± 0.049.
On to MNIQIGELAKRTACPVVTIRFYEQEGLLPPPGRSRGNFRLYGEEHVERLQFIRHCRSLDMPLSKVRTLLSYRKRPDQDCGEVNMLLDEHIRQVESRIGALLELKHHLVELREACSGARPAQSCGILQGLSCCVCDTRGTTAHPSD [D64K D131C], for which the sfGFP reporter fluorescence in data set [1] was determined as 0.0864 ± 0.0047; in data set [2] (ligand: 1 µM Pb), 0.282 ± 0.026; in data set [2] (ligand: 30 µM Zn), 0.929 ± 0.032.
For MNIQIGELAKRTACPVVTIRFYEQEGLLPPPGRSRGNFRLYGEEHVERLQFIRHCRSLDMPLSDVRTLLSYRKRPDQDCGEVNMLLDEHIRQVESRIGALLELKHHLVELREACSGARPAASCGILQGLSDCVCATRGTTAHPSD [Q121A D135A] the same measures were 0.0661 ± 0.0031, 0.0888 ± 0.0096 and 0.743 ± 0.11.
As to MNIQIGELAKRTACPVVTIRFYEQEGLLPPPGRSRGNFRLYGEEHVERLQFIRHCRSLDMPLSDVRTLLSYRKRPDQDCGEVNMLLDEHIRQVESRIGALLELVHHLVELAEACSGARPAQSCGILQGLSDCVCDTRGTTAHPSD [K104V R111A], the sfGFP reporter fluorescence turned out to be 0.0644 ± 0.0027 in data set [1], 0.096 ± 0.0033 in data set [2] (ligand: 1 µM Pb) and 0.356 ± 0.013 in data set [2] (ligand: 30 µM Zn).
In the case of MNIQIGELAKRTACPVVTIRFYEQEGLLPPPGRSRGNFRLYGEEHVERLQFIRHCRSLDMPLSDVRTLLSYRKRPDQDCGEVTMALDEHIRQVESRIGALLELKHHLVELREACSGARPAQSCGILQGLSDCVCDTRGTTAHPSD [N83T L85A], the results for the sfGFP reporter fluorescence in data set [1], in data set [2] (ligand: 1 µM Pb) and in data set [2] (ligand: 30 µM Zn) were 0.06145 ± 0.00056, 0.0596 ± 0.0031 and 0.0602 ± 0.00076, respectively.
With MNIQIGELAKRTACPVVTIRFYEQEGLLPPPGRSRGNFRLYGEEHVERLQFIRHCRSLDMPLSDVRTLLSYRKRPDQDCGEVTMLLDEHIRQVESAIGALLELKHHLVELREACSGARPAQSCGILQGLSDCVCDTRGTTAHPSD [N83T R96A], the figures for the sfGFP reporter fluorescence in data set [1], in data set [2] (ligand: 1 µM Pb) and in data set [2] (ligand: 30 µM Zn) were 0.0645 ± 0.00037, 0.0756 ± 0.0031 and 0.0938 ± 0.0026, respectively.
For MNIQIGELAKRTACPVVTIRFYEQEGLLPPPGRSRGNFRLYGEEHVERLQFIRHCRSLDMPLSDVRTLLSYRKRPDQDCGEVSMLLDEHIRQVESRIGALLELKHHLVELCEACSGARPAQSCGILQGLSDCVCDTRGTTAHPSD [N83S R111C] the same measures were 0.06169 ± 0.00056, 0.0672 ± 0.002 and 0.0665 ± 0.0011.
The corresponding values for MNIQIGELAKRTACPVVTIRFYEQEGLLPPPGRSRGNFRLYGEEHVERLQFIRHCRSLDMPLSDVRTLLSYRKRPDQDCGEVNMLLDEHIRQVESRIGALLELKHHLVELREACSGARPAQSCGLLQGLSCCVCDTRGTTAHPSD [I125L D131C] are 0.06 ± 0.0018, 0.0617 ± 0.0015 and 0.0593 ± 0.0014.
Take MNIQIGELAKRTACPVVTIRFYEQEGLLPPPGRSRGNFRLYGEEHVERLQFIRHCRSLDMPLSKVRTLLSYRKRPDQDCGEVNMLLDEHIRQVESRIGALLELKHHLVELRFACSGARPAQSCGILQGLSDCVCDTRGTTAHPSD [D64K E112F]: the sfGFP reporter fluorescence was 0.06988 ± 0.00056 in data set [1], 0.145 ± 0.0047 in data set [2] (ligand: 1 µM Pb) and 0.802 ± 0.055 in data set [2] (ligand: 30 µM Zn).

(Values after the supplement of paper PMC12783771.)
